Experimental findings from article PMC4092071 are described below.

Holding throughout (assay): equilibrium inhibitor binding assay (free trypsin by residual activity on a fluorogenic substrate); BPTI variants (0-100 pM) and trypsin (50 pM) in solution, 15 h at 22°C, 0.1 M Tris-HCl (pH 8.0), 1 mM CaCl2, 0.05% Tween 20; free trypsin from cleavage of Z-Gly-Pro-Arg-AMC; free protease against total inhibitor fitted with a quadratic equation
For test [1], the target named is non-sulfated human anionic trypsin (human) (UniProt P07478).
Test [2] has as its target non-sulfated human cationic trypsin (human).
In test [3] the target is sulfated human anionic trypsin (human) (UniProt P07478).
Test [4] has as its target sulfated human cationic trypsin (human).

For the substance “BPTI variant carrying Ala at P2′ (P1′ Ala, P3′ Asp, P4′ Ile, P19′ Val) (designed binder)”, the Kd (as a rule, the concentration at which binding is half-saturated) in test [1] came out at 0.3 pM; in test [2], 0.7 pM; in test [3] it was 2.2 pM; in test [4], 7.9 pM.

For the substance “BPTI variant carrying Arg at P2′ (P1′ Ala, P3′ Asp, P4′ Ile, P19′ Val) (designed binder)”, the Kd came out at 0.7 pM in test [1], 0.9 pM in test [2], 0.4 pM in test [3] and 1 pM in test [4].

Consider “BPTI variant carrying Ile at P2′ (P1′ Ala, P3′ Asp, P4′ Ile, P19′ Val) (designed binder)”, for which the Kd in test [1] is 0.3 pM; in test [2], 0.5 pM; in test [3], 1.3 pM; in test [4] it was 3.2 pM.

As for “BPTI variant carrying Leu at P2′ (P1′ Ala, P3′ Asp, P4′ Ile, P19′ Val) (designed binder)”, the Kd was 1.2 pM in test [1], 1.2 pM in test [2], 4 pM in test [3] and 13.4 pM in test [4].

For “BPTI variant carrying Lys at P2′ (P1′ Ala, P3′ Asp, P4′ Ile, P19′ Val) (designed binder)”, the Kd was 1.6 pM in test [1], 3.9 pM in test [2], 1.3 pM in test [3] and 3.3 pM in test [4].
